Laboratory results: the supplement of paper PMC6379048

Legend:
Experiment in all cases: Kd (EC50 corrected by depletion factor)
RPS18 = RPS18 (UniProt P62269)
How it was run: (§1)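 HEK293-FT lysate (2.5 mg protein/well) was pre-incubated 1 h at 4°C with free RNA oligos (0 nM to 30 μM), then 30 min at 4°C with the same 5′-amino-C6 oligos coupled to NHS-Sepharose beads. Bound proteins were quantified by label-free LC-MS/MS in three biological replicates and two independent experiments, and normalised to the water control. EC50 came from a four-parameter log-logistic fit; Kd is EC50 times a protein-dependent depletion factor.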

RPS12 = RPS12 (UniProt P25398)
How it was run: as §1

SRSF4 = biological target: T1, SRSF4 (UniProt Q08170)
T1 sequence: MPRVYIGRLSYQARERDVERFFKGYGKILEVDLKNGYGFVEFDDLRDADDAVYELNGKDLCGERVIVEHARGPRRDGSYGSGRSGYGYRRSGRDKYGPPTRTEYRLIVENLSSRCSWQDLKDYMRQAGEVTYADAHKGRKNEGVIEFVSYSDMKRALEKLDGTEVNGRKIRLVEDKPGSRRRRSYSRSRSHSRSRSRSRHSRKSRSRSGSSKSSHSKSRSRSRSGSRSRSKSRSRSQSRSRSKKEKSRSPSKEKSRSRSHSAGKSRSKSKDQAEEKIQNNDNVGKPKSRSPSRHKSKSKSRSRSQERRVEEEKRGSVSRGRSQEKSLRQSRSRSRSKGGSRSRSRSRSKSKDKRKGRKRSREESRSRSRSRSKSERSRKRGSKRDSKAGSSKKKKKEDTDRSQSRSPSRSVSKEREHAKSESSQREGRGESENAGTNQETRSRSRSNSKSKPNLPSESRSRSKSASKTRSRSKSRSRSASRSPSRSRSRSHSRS
How it was run: as §1

SRSF7 = biological target: T2, SRSF7 (UniProt Q16629)
T2 sequence: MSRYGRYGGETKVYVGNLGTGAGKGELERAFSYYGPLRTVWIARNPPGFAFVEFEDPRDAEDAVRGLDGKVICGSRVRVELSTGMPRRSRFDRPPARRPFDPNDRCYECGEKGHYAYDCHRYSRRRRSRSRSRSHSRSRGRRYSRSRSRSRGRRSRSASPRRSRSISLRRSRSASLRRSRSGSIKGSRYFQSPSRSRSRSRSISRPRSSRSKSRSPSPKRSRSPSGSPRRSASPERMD
How it was run: as §1

SRSF10 = SRSF10 (UniProt O75494)
How it was run: as §1

HMGB2 = biological target: T3, HMGB2 (UniProt P26583)
T3 sequence: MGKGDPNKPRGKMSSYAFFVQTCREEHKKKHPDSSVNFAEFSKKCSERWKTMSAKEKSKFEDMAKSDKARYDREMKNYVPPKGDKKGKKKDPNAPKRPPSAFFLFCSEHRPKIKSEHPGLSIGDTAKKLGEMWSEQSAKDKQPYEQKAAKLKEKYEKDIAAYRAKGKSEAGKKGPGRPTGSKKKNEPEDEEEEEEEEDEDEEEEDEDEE
How it was run: as §1

RBM14 = biological target: T4, RBM14 (UniProt Q96PK6)
T4 sequence: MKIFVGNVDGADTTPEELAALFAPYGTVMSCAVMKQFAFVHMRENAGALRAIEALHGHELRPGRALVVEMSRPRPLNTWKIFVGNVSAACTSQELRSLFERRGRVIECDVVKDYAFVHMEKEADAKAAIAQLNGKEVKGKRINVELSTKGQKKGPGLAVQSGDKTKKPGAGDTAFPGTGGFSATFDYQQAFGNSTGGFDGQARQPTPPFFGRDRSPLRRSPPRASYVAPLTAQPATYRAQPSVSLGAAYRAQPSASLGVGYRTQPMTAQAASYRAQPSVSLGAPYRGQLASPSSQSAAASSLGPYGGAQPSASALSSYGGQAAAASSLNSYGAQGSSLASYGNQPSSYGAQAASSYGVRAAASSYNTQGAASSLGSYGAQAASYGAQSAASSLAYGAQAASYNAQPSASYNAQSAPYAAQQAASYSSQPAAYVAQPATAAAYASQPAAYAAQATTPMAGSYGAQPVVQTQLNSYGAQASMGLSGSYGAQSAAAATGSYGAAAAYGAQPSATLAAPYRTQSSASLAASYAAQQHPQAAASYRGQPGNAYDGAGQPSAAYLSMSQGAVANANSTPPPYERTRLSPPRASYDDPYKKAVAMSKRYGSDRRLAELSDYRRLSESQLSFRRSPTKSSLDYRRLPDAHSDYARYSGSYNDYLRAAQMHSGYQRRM
How it was run: as §1

RBM38 = biological target: T5, RBM38 (UniProt Q9H0Z9)
T5 sequence: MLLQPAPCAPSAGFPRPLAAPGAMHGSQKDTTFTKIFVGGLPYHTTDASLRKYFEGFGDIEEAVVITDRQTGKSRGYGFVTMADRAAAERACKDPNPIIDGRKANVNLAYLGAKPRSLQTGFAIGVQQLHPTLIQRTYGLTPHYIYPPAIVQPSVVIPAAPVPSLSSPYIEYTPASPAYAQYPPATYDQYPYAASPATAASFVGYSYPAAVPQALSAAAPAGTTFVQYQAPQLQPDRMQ
How it was run: as §1

TSN = TSN (UniProt Q15631)
How it was run: as §1

HNRNPA0 = biological target: T6, HNRNPA0 (UniProt Q13151)
T6 sequence: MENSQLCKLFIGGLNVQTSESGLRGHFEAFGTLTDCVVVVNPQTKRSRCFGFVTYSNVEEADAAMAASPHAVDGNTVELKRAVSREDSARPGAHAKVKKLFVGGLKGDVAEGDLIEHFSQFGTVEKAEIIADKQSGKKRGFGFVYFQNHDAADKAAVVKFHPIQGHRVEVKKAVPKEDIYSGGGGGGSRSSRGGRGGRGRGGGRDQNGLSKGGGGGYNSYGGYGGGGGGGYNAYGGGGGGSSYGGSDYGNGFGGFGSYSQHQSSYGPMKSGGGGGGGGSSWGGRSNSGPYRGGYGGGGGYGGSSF
How it was run: as §1

MRPS9 = MRPS9 (UniProt P82933)
How it was run: as §1

SRSF10, sequence (O75494 whole entry): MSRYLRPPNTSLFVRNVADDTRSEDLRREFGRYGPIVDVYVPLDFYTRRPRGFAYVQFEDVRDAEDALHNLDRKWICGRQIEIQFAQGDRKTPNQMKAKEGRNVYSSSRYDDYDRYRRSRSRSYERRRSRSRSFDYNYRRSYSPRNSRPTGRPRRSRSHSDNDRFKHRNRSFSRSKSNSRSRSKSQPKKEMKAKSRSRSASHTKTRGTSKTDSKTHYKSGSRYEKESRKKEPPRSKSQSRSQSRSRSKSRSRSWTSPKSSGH
TSN, sequence (Q15631 whole entry): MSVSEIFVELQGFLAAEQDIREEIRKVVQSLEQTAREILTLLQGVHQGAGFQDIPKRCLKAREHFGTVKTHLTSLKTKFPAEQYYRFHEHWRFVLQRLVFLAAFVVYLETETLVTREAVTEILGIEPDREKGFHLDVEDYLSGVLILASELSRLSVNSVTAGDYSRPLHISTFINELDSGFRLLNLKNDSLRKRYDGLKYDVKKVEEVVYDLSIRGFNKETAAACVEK

Sequence: CUGUCCU
- Kd (RPS18): 42.6 nM
- Kd (RPS12): 128 nM
- Kd (SRSF4): 312 nM
- Kd (SRSF7): 1000 nM

Sequence: AAUAAA
- Kd (SRSF10): 156 nM
- Kd (HMGB2): 2.05 nM
- Kd (RBM14): 600 nM

Sequence: UAUUUAU
- Kd (RBM38): 1270 nM
- Kd (TSN): 16.8 nM
- Kd (HNRNPA0): 3200 nM
- Kd (MRPS9): 27.1 nM
